Like-named read-outs stand apart in the source and are kept apart here.
B1: H' (design I) (dsDNA)
DNA 1: TGGCCAAAAAAGCATTGCTTATCAATTTGTTGCACC
DNA 2: TGGTGCAACAAATTGATAAGCAATGCTTTTTTGGCC
B2: H' (design II) (dsDNA)
DNA 1: GGCCAAAAAAGCATTGCTTATCAATTTGTTGCACC
DNA 2: GGTGCAACAAATTGATAAGCAATGCTTTTTTGGCC
modifications: 3' phosphate link on bottom strand (to dye)
B3: H1 (design II) (dsDNA)
DNA 1: GGCCATGCAGTCACTATGAATCAACTACTTAGACC
DNA 2: GGTCTAAGTAGTTGATTCATAGTGACTGCATGGCC
modifications: 3' phosphate link on bottom strand (to dye)
B4: H1_CTloop (design I) (dsDNA)
DNA 1: TGGCCATGCAGTCACTATGAATCAACTACTTAGACC
DNA 2: TGGTCTAAGTAGTTGATTCATTCTGACTGCATGGCC
B5: H1 (design I) (dsDNA)
DNA 1: TGGCCATGCAGTCACTATGAATCAACTACTTAGACC
DNA 2: TGGTCTAAGTAGTTGATTCATAGTGACTGCATGGCC
B6: H'44A (design I) (dsDNA)
DNA 1: TGGCCAAAAAAGCATTGCTTATCAATTTGTAGCACC
DNA 2: TGGTGCTACAAATTGATAAGCAATGCTTTTTTGGCC

Tests used:
[1] = biological target: T1, Integration host factor (IHF) (UniProt P0A6X7;P0A6Y1 2-99;1-94); assay: equilibrium fluorescence titration, extrapolated
T1 sequence (P0A6X7 2-99, chain 1 of 2): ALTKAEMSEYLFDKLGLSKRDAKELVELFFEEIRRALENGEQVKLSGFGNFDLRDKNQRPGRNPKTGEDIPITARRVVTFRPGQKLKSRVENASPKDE
T1 sequence (P0A6Y1 whole entry, chain 2 of 2): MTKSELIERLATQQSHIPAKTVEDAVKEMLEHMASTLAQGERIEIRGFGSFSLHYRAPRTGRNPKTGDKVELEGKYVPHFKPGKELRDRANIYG

[2] = biological target: T1, Integration host factor (IHF); assay: equilibrium fluorescence titration
[3] = biological target: T1, Integration host factor (IHF); assay: fluorescence lifetime FRET
[4] = biological target: T1, Integration host factor (IHF); assay: fluorescence lifetime FRET; remark: listed apart in the source

Binder | Kd [2] [nM] | further results
B1 | 1900 ± 100 | Kd [1]: 0.023 nM
B2 | 1500 ± 200 | –
B3 | 1990 ± 50 | –
B4 | 16 ± 3 | –
B5 | – | binding result [3]: binds
B6 | – | binding result [4]: binds

Reference: publication doi:10.1101/382655
